Patent US11497788B2, “Supramolecular glycosaminoglycans” (Northwestern University, priority 2015, dated 2022)

What was measured:
BMP-2 = molecular target: T1, BMP-2 (Homo sapiens, UniProt P12643); experiment: BMP-2 stability assay (ELISA) in C2C12 culture; format: cell-based; settings: 75 ng/mL BMP-2; 0, 3, 9, 24 h
T1 construct: purchased Medtronic Sofamor Danek (Minneapolis, Minn.)
T1 sequence (P12643 283-396): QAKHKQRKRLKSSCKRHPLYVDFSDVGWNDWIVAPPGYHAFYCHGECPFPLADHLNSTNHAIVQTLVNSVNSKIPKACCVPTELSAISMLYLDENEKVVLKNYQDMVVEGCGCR
Protocol: BMP-2 Stability Assay: C2C12 cells were seeded at 150,000 cells/mL (500 μL/well in a 48-well plate) and incubated overnight. Following, the media was replaced with treatment media (75 ng/mL BMP-2 in the presence/absence of PA 1, PA 4, and monosaccharide 1. The media was collected at 0, 3, 9, and 24 h and stored at −80° C. prior to BMP-2 quantification. In addition, the cell monolayers were lysed at the indicated time with a 100 μL of M-PER Mammalian Protein Extraction Reagent, supplemented with 1×Halt Protease Inhibitor Cocktail, and also stored at −80° C. prior to BMP-2 quantification. The amount of BMP-2 present in the media and cell extracts was assayed using a BMP-2 Quantikine ELISA kit (R&D Systems) according to the manufacturer's specifications.

[1] = tested on: FGF-2 signaling in BaF3-FR1C cells; experiment: BaF3-FR1C cell proliferation assay with FGF-2; format: cell-based; settings: FGF-2 10 ng/ml; 2 days
Protocol: BaF3-FR1C Cell Proliferation Assay: Upon reception of a frozen vial, BaF3-FR1C cells were cultured and expanded in growth media as recommended (40). The cells were grown in RPMI1640 medium with 2 mM L-glutamine (Thermo Fisher) containing 10% newborn bovine calf serum (Thermo Fisher), 0.5 ng/mL of recombinant mouse IL-3 (Peprotech), 600 μg/mL of G418 sulfate (Thermo Fisher), 50 nM of 2-mercaptoethanol (Thermo Fisher), and 100 unit/mL penicillin and 100 μg/mL streptomycin (Thermo Fisher) at 37° C., 5% CO2. The medium was changed every 2 days. Experiments were performed using with 1-3 week old passaged cells. The BaF3-FR1C cells were first assessed with the CyQUANT direct cell proliferation assay (Thermo Fisher), but no change in fluorescent signal was observed from a 0 to 2 day old culture in growth conditions although the growth was evident under the microscope. […] For assays testing the effect of heparin and glycopeptide nanofibers FGF-2 induced proliferation, 10,000 cells/well were plated in 50 μl of growth media without G148 sulfate and recombinant mouse IL-3 (NT media) in a 96-well plate. We then added a 2×concentrated mixture of FGF-2 with heparin or glycopeptide nanofibers in the same NT media. […] The absorbance was read at 490 nm in a Cytation 3 instrument (BioTek) and cell growth was compared to cells in NT media. […]

[2] = tested on: BMP-2, BMP-4, noggin, Shh, VEGF, FGF-1, FGF-2; experiment: Surface plasmon resonance (SPR) binding to immobilized heparin binding GFs; set-up: species or system human (Noggin murine); settings: analytes 50-500 nM; GFs immobilized on alginate surface; 25° C.
Protocol: Surface Plasmon Resonance: The binding interactions between PAs (analytes) and growth factors (ligands) were analyzed via surface plasmon resonance (SPR) using a ProteON XPR36 system (Bio-Rad Laboratories). PA samples were thermally annealed as described for Cryo-TEM. PA solutions were spun down, pipetted for homogeneous mixing, and sequentially diluted to appropriate concentrations using Tween buffer (Milli-Q water, 0.05% Tween-20). Lyophilized powders of GFs were reconstituted to 5 μM without any carrier proteins according to the manufacturer's instructions. BMP-2, BMP-4, Shh, VEGF, and FGF-2 were further diluted to 200 nM in ProteOn Acetate Buffer pH 5.5, while FGF-1 was diluted to 200 nM in ProteOn Acetate Buffer pH 4.5. Noggin was diluted to 300 nM in ProteOn Acetate Buffer pH 5.5.
GFs were immobilized on a ProteOn GLC-Chip via amino coupling as described previously, with slight modifications (37). First, the alginate surface was activated with a freshly prepared mixture of 20 mM 1-Ethyl-3-[3-dimethylaminopropyl]carbodiimide hydrochloride (EDC) and 5 mM N-hydroxysulfosuccinimide (Sulfo-NHS) in Milli-Q water (vertical flow cells, 30 μL/min, 3 min). Following, GFs were immobilized on vertical flow cells 1 to 5 by perfusing a freshly prepared 200 nM (or 300 nM) solution over the activated alginate surface (30 μL/min, 5 min). Blank buffer was perfused on vertical cell 6 as a reference. The remaining esters were deactivated with 1 M ethanolamine (30 μL/min, 3 min). The association and dissociation phases were performed at 25° C. in Tween buffer. Prior to each analyte injection, the horizontal flow cells 1 to 6 were regenerated with 10 mM NaOH (100 μL/min, 30 sec) and washed once with Tween buffer (30 μL/min, 3 min). Varied analyte concentrations were injected to horizontal flow cells 1 to 5, with flow cell 6 as a reference (30 μL/min, 5 min), followed by dissociation with Tween buffer (30 μL/min, 10 min). For analysis, SPR sensorgram from the reference flow cell was subtracted from all measurement flow cells. Interaction data were evaluated using the BIAEvaluation 4.1 software. […]

Factor Xa = settings: compared to heparin
Protocol: Anticoagulation Assay: PA 1 was dissolved to 5 mM in saline with 5 mM CaCl2), pH 7.2, thermally annealed at 80° C. for 30 min and slowly cooled to room temperature. The PA solution was spun down, pipetted for homogeneous mixing, and diluted to 0.25, 2.5, 25, and 100 μM in saline with 2 mM CaCl2). The anticoagulant activities of PA 1 and heparin were assessed by monitoring the activity of Factor Xa, a coagulation cascade enzyme inhibited by heparin-activated antithrombin. The assay was performed using the COATEST Heparin Kit (Chromogenix) according to the manufacturer's instructions. Values were represented as the relative bioactivity of Factor Xa when compared to treatment group treated with saline only.

## 3,4,6S-GlcNAc PA (VVAAEEK) [PA 1]
BMP-2
  BMP-2 stability in cell culture media: improved BMP-2 stability
[1]
  FGF-2 mediated cell proliferation: improved
[2]
  binding to heparin binding GFs (SPR): strong concentration-dependent binding
Factor Xa
  anticoagulation activity (Factor Xa activity): minimal anticoagulation activity
